Experimental data: paper PMC9909426

Molecular target: Orange Carotenoid Protein variant OCP-W288_BTA (Synechocystis sp. PCC 6803 OCP with Trp288 replaced by 3-benzothienyl-L-alanine) (Synechocystis sp. PCC 6803) (UniProt P74102)
Assay: SEC; preparative SEC, Superdex 200 Increase 10/300, after IMAC and HIC; pink, earlier eluting fraction OCP-W288_BTA(P)

stoichiometry N: 2
Substance: Orange Carotenoid Protein variant OCP-W288_BTA (Synechocystis sp. PCC 6803 OCP with Trp288 replaced by 3-benzothienyl-L-alanine) (from UniProt P74102 1-317) (natural protein)
